Measurements taken from the RNAGym collection of RNA variant scans (doi:10.1073/pnas.2313332121).
Fewer inactive variants are shown than the library holds.

B1: TPR 5TU (parent)
chain: GGAUCUUCUCGAUCUAACAAAAAAGACAAAUCUGCCACAAAGCUUGAGAGCAUCUUCGGAUGCAGAGGCGGCAGCCUUCGGUGGCGCGAUAGCGCCAACGUUCUCAACUAUGACACGCAAAACGCGUGCUCCGUUGAAUGGAGUUUAUCAUG

Variants of: B1
Test: polymerase ribozyme fitness, log enrichment relative to wild type (log ratio); higher = more active; in vitro selection for triplet polymerase activity
In short: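 To select mutant libraries of each subunit of a heterodimeric triplet polymerase ribozyme, built by PCR and transcribed, each was annealed with a biotinylated primer, partner subunit and triplets, then incubated frozen at −7 °C. Extended constructs were gel-excised, captured on streptavidin beads and amplified by RT-PCR, in one round carried out in triplicate. Illumina sequencing of input and output libraries kept genotypes with ≥10 input reads and ≥1 read per output. Fitness is the base-2 logarithm of genotype enrichment relative to wild-type enrichment, from inverse-variance-weighted replicate averages.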

| Variant | polymerase ribozyme fitness (log ratio) |
| --- | --- |
| C35A A60G C87U C96A G136A U146A | -4.03 |
| G34A A120C | 0.113 |
| C32G C93G | ≤ -4.2 |
| C36G C95A | -3.65 |
| C35U G117C C118U | -1.01 |
| C35U C85G C132U | -3.12 |
| U33G G124A U134G | ≤ -4.2 |
| C32G C36U C69U | ≤ -4.2 |
| C35A C76A | -4.08 |
| C35A C76U | -3.95 |
| G34C A52G G84A U109A C125U | ≤ -4.2 |
| C35A G86U C87G A97U C105U A119U A150C | ≤ -4.2 |
| C32A C54U C93A A110G A137G G140C | -4.17 |
| C32G C35U C72G A106C | ≤ -4.2 |
| C36A U82G U135C U145G G152U | -3.98 |
| C35A A60C A97G U145G | ≤ -4.2 |
| C35G G94C U101C A115C | ≤ -4.2 |
| U33G A39G G62U G92A A122U U134A | ≤ -4.2 |
| C32U A52G U55G G94C | -3.43 |
| C36U A37G U53A C54U C87G | ≤ -4.2 |
| C32U A37U U56C C95U U145G U148G | ≤ -4.2 |
| C35U C125A U134C | -0.129 |
| U33A C72U A73G G124U | -3.23 |
| C36A G84U U102A C103U U127C | ≤ -4.2 |

| Variant | polymerase ribozyme fitness (log ratio) |
| --- | --- |
| C35U C51U A52C C76G C93G A115U | ≤ -4.2 |
| U33C C36U U56A G84U U90C A110C G143C | ≤ -4.2 |
| C32G G50A U61A G62C G71A A91U G94C A138C | ≤ -4.2 |
| C35U U55A U56A G92A A110U U135A G152C | ≤ -4.2 |
| C35U A49G U53A C87U A89C C95U C132A A142C | ≤ -4.2 |
| C32U G46U C103G U104G A107C G140C | ≤ -4.2 |
| C35U U44G C85U C116G C123A | -3.89 |
| C36A U77G G81C G92U A115U G136C | ≤ -4.2 |
| C32G C57U G80C G86C G152U | ≤ -4.2 |
| C32U G34C C51U U130G U145A | ≤ -4.2 |
| C36A G67C G68C A73U C87A U148C | ≤ -4.2 |
| C32U A37G G46U U77C G86C A115G A119U | ≤ -4.2 |
| C32U G68A C85A G94A U139A A147C | ≤ -4.2 |
| C35U C43A A60C U101G | ≤ -4.2 |
| U33G G68A C87G C108U A120C G136U | ≤ -4.2 |
| C35G G58C C75G C76U A89U C95G C108A A137C | ≤ -4.2 |
| U33A U44G A107G A122G C132U | ≤ -4.2 |
| C32A U77G G88A G126C G143U | ≤ -4.2 |
| C35G G58A G59U A60U A73C C116G C123A G140C | ≤ -4.2 |
| C35G C36G G128U | ≤ -4.2 |
| C32U G59A | -1.99 |
| C35U C95A | -0.608 |
| C35U A97G U134G U144G | -2.34 |
| C35U C57U | 0.194 |

| Variant | polymerase ribozyme fitness (log ratio) |
| --- | --- |
| C35U C57A | 0.0108 |
| C35U G59C | 0.0057 |
| C36G C57G C72G C118U | ≤ -4.2 |
| C35A G59U C69G | -2.14 |
| C35U G58U G74A G80U G83A C116G | ≤ -4.2 |
| C36A A150U | -4.01 |
| C36G C87U A106U | ≤ -4.2 |
| C32U A49U C51U C75U U102C U146G | ≤ -4.2 |
| G34C C75A G94A C108G U130A | ≤ -4.2 |
| C35U U135A | -0.972 |
| C35U U135G | -3.62 |
| C35U G92C U135C | -2.73 |
| C36G C105U | -3.04 |
| U33C A122G U127G | ≤ -4.2 |
| C35U C116U A120G | -0.528 |
| C36A C51U G68A C85G A97U | ≤ -4.2 |
| G34A U55A | -2.46 |
| U33C C36U C54A C72U G84U C85A U148G | ≤ -4.2 |
| G34U G50U A91C | -4.01 |
| C36G G80U C85U C87A U109G U139C A142G | ≤ -4.2 |
| C35G C63A C93U | -4.16 |
| C35U C76A C95U U148A | ≤ -4.2 |
| U31G G71U | ≤ -4.2 |
| C32G A39G G58U G143C | -4.1 |

| Variant | polymerase ribozyme fitness (log ratio) |
| --- | --- |
| G34U U56G G58A C69G G94C A97G U134C | ≤ -4.2 |
| C35U A41C C105A | -4.09 |
| C35A A49G C87A C103A | ≤ -4.2 |
| C36A C93A C105G C125A | ≤ -4.2 |
| C36A U44A G62C C93U U135G U139C U144A | ≤ -4.2 |
| C32U G74A C93U | -0.21 |
| C32U G58C C63A | -3.84 |
| U31G G83A A138G | ≤ -4.2 |
| C32U U56A A91U A113U C118A G143C C149U | ≤ -4.2 |
| U31G G81U C87G U104G G128C | ≤ -4.2 |
| C32A C51G C72U C85G A97C U101G | ≤ -4.2 |
| C35U A52G | -0.53 |
| C32U G59C A89C G94C | -3.87 |
| U33A U145C | -4 |
| C35U C96U U101C C118U | -0.95 |
| C35U G88C C103U | ≤ -4.2 |
| C32G C87A A107G | ≤ -4.2 |
| C35U A49C G59A C96A U148G A150C | ≤ -4.2 |
| C35U C54U U55A C116G | 0.41 |
| C35U A39G G84C A106G A120U G152A | ≤ -4.2 |
| G34C C51A G58A G59C C96A A107U | ≤ -4.2 |
| G34A U101A | -2.82 |
| C35A A107U C108U | -3.61 |
| U33A C69G C87G | ≤ -4.2 |

| Variant | polymerase ribozyme fitness (log ratio) |
| --- | --- |
| C35U A98G C99A U101C G141A | ≤ -4.2 |
| C35G G74A U90A C95U | ≤ -4.2 |
| C32G G58C G94U | -3.86 |
| C35U U53A U55A C57G G70A G84A C93A | ≤ -4.2 |
| C35U C87U A107G G126A G136U G140U | ≤ -4.2 |
| C35U A41C U56A C76U G88U C105U | ≤ -4.2 |
| C35U G86A C105A A137U | ≤ -4.2 |
| G34A C93A | -3.6 |
| C32G G59C A66G U102A | ≤ -4.2 |
| C36A A97U U101C U139A | ≤ -4.2 |
| C35U A91G G117U A142U | ≤ -4.2 |
| G34A C36G C69G C76A C95G G112A | ≤ -4.2 |
| U31G U53A A91G A122G | -3.62 |
| C32G G50U C79G G88U G94C U101C C125A | ≤ -4.2 |
| G34A G46A C76G G136A U144A | ≤ -4.2 |
| C35U G74U G83C A107C G126A U148C | ≤ -4.2 |
| C32G G58A G84A A107G G124C U130G | ≤ -4.2 |
| G34U A47G C57G G68A U102A | ≤ -4.2 |
| C35U U56A C95A C105U G126C | -1.08 |
| C35U A52U C95G A106U A107G C118G | ≤ -4.2 |
| U33A G50A U53A C85G C96G A97U C114G U139A | ≤ -4.2 |
| C32U U44A G50U U78C G83U A120G | ≤ -4.2 |
| C36G A49C G58A G70C U82G A98U U104A A106G | ≤ -4.2 |
| U33A C75G U78A U101A G152U | -4.02 |

| Variant | polymerase ribozyme fitness (log ratio) |
| --- | --- |
| U33C G71C | ≤ -4.2 |
| C35U A40C U45G G50A G88U A91G G140C | ≤ -4.2 |
| C36A C95U C125G U127C | ≤ -4.2 |
| C32U C57U A121U C125U | -1.52 |
| C32U A52C U55G C57A | -3.11 |
| C32G A39C A41C A52U G94C C116G | ≤ -4.2 |
| U31G U56A | 0.083 |
| G34U G94C | -3.96 |
| C35U G42C C76A C93A G117C | ≤ -4.2 |
| U33G G58C A120G G133C | -3.81 |
| C35U C63A | -0.573 |
| C32A C36G A47G C72G A89G A91G | ≤ -4.2 |
| U31G G59U A138U | ≤ -4.2 |
| C32A G65A G88A C118U A120C A142G U144C | ≤ -4.2 |
| C32G A91C G117U A137U | ≤ -4.2 |
| C35G C96U | -4.18 |
| C35U C57G C85A G124A A138C U139A A142C U144G | ≤ -4.2 |
| C36G C51U C54U C93G | ≤ -4.2 |
| U33C U56G C93U | ≤ -4.2 |
| C36A G117U U148C | ≤ -4.2 |
| U33G C95U | -2.22 |
| C35A G62C U109G A122U A142C | ≤ -4.2 |
| U33C A37G C63A C87G U111G U151A | ≤ -4.2 |
| G34U U55A A91G G94U | ≤ -4.2 |

| Variant | polymerase ribozyme fitness (log ratio) |
| --- | --- |
| C35G C76U G92A C123G A137U | ≤ -4.2 |
| U33G A52G U130G C131U G133U U146A | ≤ -4.2 |
| C32G G50C C51U G88A A110G | -4.19 |
| C36A A39G G59U C85A A98U A107C | ≤ -4.2 |
| C35U A60G C79U G86C C93G G94A U104C | ≤ -4.2 |
| C36G U56A A98G | -3.71 |
| C35U C95A C105G | -2.51 |
| U31G G50A C51U G62C G68U C95U U101G A106C | ≤ -4.2 |
| C35A A60C U102G | ≤ -4.2 |
| C36A G70U G80U C105U | -0.569 |
| C32G A41C C75U | ≤ -4.2 |
| C35A G50C G86U C118A | ≤ -4.2 |
| C35U U56A G143C | -2.48 |
| U33G C54U C96G A147U | -3.24 |
| C32G G59C C96A U144A | ≤ -4.2 |
| G34U C99G A106U U127A C132U U139C | ≤ -4.2 |
| C35U C54G C85A | -3.81 |
| C35U C57A U61A G67A C95A C103A C116U | ≤ -4.2 |
| G34A G84A C95G | -0.00509 |
| U33A G83A C95U U151C | ≤ -4.2 |
| C35U C72U U82G C96U A106G G112A | ≤ -4.2 |
| C32A A37C | ≤ -4.2 |
| C35A G70A C79U G81A | ≤ -4.2 |
